# ± gives the uncertainty stated by the source.
# Test: amyloid nucleation score (Sup35N fusion, yeast selection) (log enrichment); library NNK3; higher = more nucleation; inactive = no reads after selection
# In short: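 Peptides of 20 random codons fused to Sup35N were expressed in psi-negative yeast, induced 24 hours with 100 μM copper sulfate, then grown 7 days at 30°C on medium lacking adenine and uracil. Input and output plasmid inserts were Illumina-sequenced. Nucleation score is the DiMSum log enrichment of output over input reads, centred on the mode score of non-aggregating sequences, excluding sequences with under 100 input reads. Random libraries had three technical output replicates.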
row,Substance,amyloid nucleation score
1,SEARCA,inactive
2,CCFYRSSWVFKLGEGRVIIP,0.319 ± 0.43
3,ECSVSMCEKGITYRSVVERG,inactive
4,YSRSTWVRIWFLLVSLLPVG,inactive
5,NGFCSASICREDCEMWNMQS,inactive
6,MRLMVWESLR,1.6 ± 0.097
7,INSVSRGCINHFASVEGPCI,inactive
8,CSVLDKEVFGGTSQDSDSYL,inactive
9,FHFFYYTLFNCHHGLFTSFF,inactive
10,RVKASSFQISMMTDALKFWC,inactive
11,FHFYGFCLYAYFSAIEDQNC,2.06 ± 0.071
12,PESGAPNPSGYCLAHH,inactive
13,CVADHLSCISTRGNCCYMSG,0.473 ± 0.26
14,NPRVYNMIQPAYVNWSMDVT,inactive
15,FTAFMFS,inactive
16,RTYMVII,inactive
17,NFMGVYLVWNFIVVFKVHYV,inactive
18,LKGVYSERPNRDAG,inactive
19,LIYRHLGYCYNRGCWLVSWH,inactive
20,TCLEVYGSDMFRTKIRNHDK,inactive
21,LSIDMSLYLCSTFYFK,2.31 ± 0.06
22,FNKLEVRNRQEWLSGRFWDH,-0.091 ± 0.36
23,SGVWFVGRVCELHSWFINLS,inactive

row,Substance,amyloid nucleation score
1,AFDTILAEYLCYFLL,1.7 ± 0.1
2,VCNMRVYI,inactive
3,DSLLDGYSHWAKWGSTRCVR,inactive
4,CIGGWDIKGKQ,inactive
5,CLVTGWISSILNWFLYWNWE,inactive
6,NGSNFFDCSQFLCSFGGDVV,2.45 ± 0.072
7,NLSLGQFIKAAVKFVHKPRK,1.34 ± 0.14
8,AVTCVDSWMRDTG,inactive
9,FTSLLAVYSIPLQWGATT,inactive
10,FIQWQSESVYIAYSNFTSSM,inactive
11,LNADVTMLKSNGVMTIT,inactive
12,DEFVCLEVDNLCMVCSEKM,-0.067 ± 0.73
13,VCSDGLNWGHGVRMLWY,inactive
14,EFSYISVCRLQLLMHTKIWD,1.43 ± 0.14
15,FVVGHENNFLKFANSLSRL,inactive
16,FRWNNCGSMVRISTPSYSFL,inactive
17,SSLWSNK,inactive
18,TSESAIAVRWSVFSPWPLGF,0.643 ± 0.15
19,SWVFFD,inactive
20,LNLTGVISNLRVVNGQ,inactive
21,ILQYRYKGWNRKGYHQQPVI,inactive
22,IVDFFGFNFCSWLSVFSDSR,2.48 ± 0.056
23,FFVMCARGHTMRSYTFFVK,inactive

row,Substance,amyloid nucleation score
1,SRQRIDYFMVRRSGSWSRQV,inactive
2,IHVDLYN,inactive
3,YRAECNNFLMPLCCTEFFQI,2.2 ± 0.087
4,SHYRDK,inactive
5,VRYPRSLVCYWYGRNHAVWA,inactive
6,GKIEDYCLVRESQAIPSLLQ,inactive
7,SSSATGPAYGNKQATFRRLV,-0.457 ± 0.9
8,GGTVFSNCVGVRRLNMYINY,inactive
9,IKGFRGLLFEVSYHSPELGW,inactive
10,RVTVPDVDCGKASWSPGKVC,inactive
11,TVNWLL,inactive
12,VKTKPFHLRYR,inactive
13,VFMNKGQRV,inactive
14,VGSGCNISTKTACFYMKLIA,inactive
15,AGNLLARPSLQKGCLLDELP,-0.73 ± 1.7
16,AGTSKMNIYSMHAV,inactive
17,SVYGSVFKNRG,inactive
18,DPFVRDIWQREYQWES,inactive
19,LMLILCY,inactive
20,DENVALFFLF,inactive
21,SLFRNS,inactive
22,VISGNNVCSIRSDFRKIFFY,0.762 ± 0.17
23,RHWTGCSNQESRTGCGACCI,inactive

row,Substance,amyloid nucleation score
1,QFGSWD,inactive
2,NGSLREKSGSVCKRIL,inactive
3,LWFPVEGGYPPSDVKQKHIS,0.086 ± 0.31
4,GDVRLFTCRMLGILFFSIT,inactive
5,WQPFD,inactive
6,NHLGVRWVLSMNMTFPHHNL,1.29 ± 0.089
7,YFTSEPLSAPSQWGRVKGSA,inactive
8,CQHSRRLKGAAYKSCQMYRR,inactive
9,ALWFIHYGAG,0.98 ± 0.24
10,TYKRIPYELTRSGTKPLYTP,inactive
11,KFANYSPRDGTCGTDAHVSD,inactive
12,IRPWQLCMSKLSHIRRATPY,inactive
13,NHYCDFAVWSTFNLTLHHSL,inactive
14,ILRFFVCLSHKNVDFICSAR,inactive
15,VTCETSGADVVSTR,inactive
16,IGFNA,inactive
17,LNCATFHYLTAVILMEYCRT,inactive
18,LDLIRY,inactive
19,PLPDRGSFFTVSNLNEWSAV,inactive
20,RWCMVIDSTNWCSCDRKHGA,1.49 ± 0.13
21,CRSQMHWLYSQRQIMPVLRS,inactive
22,QTGLVMWQLTFTYPLHVWNM,inactive
23,SMLLVGTPDIIGDS,inactive

row,Substance,amyloid nucleation score
1,RKIHVAMVLRIEYSMYGSPA,inactive
2,TVTCANSCLCRLSRMSCVVL,inactive
3,HTESTGLSTPWVHL,inactive
4,NMFRFLMCSSTRHYVRIMTN,inactive
5,SQKFVYLMSPSWPGGQLEAR,inactive
6,RSLFSISAVIEICMLWSV,inactive
7,YRFLHSEVEVAHFWLWCSSS,inactive
8,SHAEVCQLSTSGPL,inactive
9,TVYELYVDLAVRRSAFAFLP,0.744 ± 0.15
10,LSKPFPSMHFSRRWNRNGLW,inactive
11,YQGKLI,inactive
12,KRPHV,inactive
13,VTNPLGPFMDRF,inactive
14,SYYTISLRMSFTTYFCLKMS,0.665 ± 0.13
15,KFLKLQVYASNGSSDPPRLD,inactive
16,PIIFNFLRIM,1.7 ± 0.058
17,LLTFSH,inactive
18,LMLEISIHLLLYRVSISGYF,inactive
19,MPYSFIMTVTYSLQYTQWSL,-0.074 ± 0.51
20,LTCSWIICLSMSYLTSRYNR,1.83 ± 0.1
21,WCFYKSLIACGHIVGIEPDW,0.848 ± 0.15
22,ASLVKSHDHMRASHLGGLHK,inactive
23,HEQDVAPKCWMYVELNQLGW,0.688 ± 0.2

row,Substance,amyloid nucleation score
1,STCYSCVMLMVGS,inactive
2,LCEEYYSINTWFRYVNVDIL,inactive
3,YRYCINVTKYHLLQ,inactive
4,VLSMRHSNTGMARCTDW,inactive
5,NLVWFHIATEVIERNVGGGN,inactive
6,SIPNTTFIFSLL,1.19 ± 0.08
7,GISYLVRNSGAKRGD,inactive
8,GVYSVTCMFYKWEVGWSSSD,inactive
9,YLEVLVGSNQCFNMQG,inactive
10,QSKFFGQWFLRQND,0.299 ± 0.21
11,HPWEARGHPVLHERRNLHSI,inactive
12,CPFPRLSICVACNEYDNQLS,inactive
13,NSYQY,inactive
14,WTTYLWVAGVLA,inactive
15,SIIIIISCFGVQNVWFAEMM,0.405 ± 0.3
16,LNNSEWSLS,inactive
17,VEKAIAFGNF,inactive
18,FECMRELPRAPTKPGSWRHA,inactive
19,NSSTDFS,inactive
20,RPKTTH,inactive
21,LKSDI,inactive
22,LFLFQFRYGSWGFRGYMVGR,0.837 ± 0.27
23,FFAECCRGNKCYMRSKDDQS,inactive

row,Substance,amyloid nucleation score
1,RCNLGTAAHFCKY,inactive
2,PFWKLKQKWVR,-1.1 ± 1.9
3,MGKETRVA,inactive
4,WYVYKFCEPVGDRGRFVWCL,-0.212 ± 0.84
5,INSDSSQFSYSSLGKVIGMY,inactive
6,HSFREYKRVNLYYPFYKDCL,0.467 ± 0.13
7,LDLLMGV,inactive
8,GHCEYVVCYVNCRFVQMSVR,1.65 ± 0.093
9,LHSVGVPMAPVKGTMWERER,inactive
10,GGALAKNHILCR,inactive
11,TKYRPCYNIVYSMFED,inactive
12,LYRVVSLSYAVCLILSRCFT,inactive
13,IQDLEASRFGSIVIALDNCS,inactive
14,GISRMGMAEDPDSGWSHDYY,inactive
15,CSWRNRYCMLRRELFGAWRV,inactive
16,LGNTCKIDWRISYHMTPSDI,inactive
17,RMNMCMWLAWDSPWYIMGY,inactive
18,GRQYVCYYTFLKLYWLKSMW,inactive
19,CCLTIGSKPIYHCWQLGIMA,inactive
20,LFLVIYYVFMYVA,inactive
21,FHNVGLI,1.77 ± 0.093
22,LSYNTVDVWPLAFNFWWMIS,0.199 ± 0.44
